Results: patent publication US20200399318A1, “PEPTIDE INHIBITORS OF PHOSPHOGLYCERATE MUTASE AND METHODS OF USE” (priority 2016, published 2020)
Where “and” joins values, the source holds several entries; their conditions need not be identical. Equal values may be shown once. Read-outs that look alike come from different tables or passages of the source.

T1: B. malayi cofactor-independent phosphoglycerate mutase (iPGM) (Brugia malayi), Q4VWF8
T1 chain: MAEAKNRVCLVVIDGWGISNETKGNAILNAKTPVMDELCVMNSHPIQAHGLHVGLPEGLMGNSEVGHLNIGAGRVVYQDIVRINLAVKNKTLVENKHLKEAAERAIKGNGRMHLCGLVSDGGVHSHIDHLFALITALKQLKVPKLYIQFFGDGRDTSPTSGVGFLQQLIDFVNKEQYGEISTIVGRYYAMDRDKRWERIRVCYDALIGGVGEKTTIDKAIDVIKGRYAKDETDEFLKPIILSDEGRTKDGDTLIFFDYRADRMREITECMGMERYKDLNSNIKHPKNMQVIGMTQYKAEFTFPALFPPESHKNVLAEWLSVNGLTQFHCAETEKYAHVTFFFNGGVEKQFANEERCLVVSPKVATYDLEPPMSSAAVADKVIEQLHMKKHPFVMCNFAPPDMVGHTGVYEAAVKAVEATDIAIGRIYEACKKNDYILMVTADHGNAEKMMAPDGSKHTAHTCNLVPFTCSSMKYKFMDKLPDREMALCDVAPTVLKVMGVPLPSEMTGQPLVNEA

T2: C. elegans cofactor-independent phosphoglycerate mutase (iPGM) (Caenorhabditis elegans), G5EFZ1
T2 chain: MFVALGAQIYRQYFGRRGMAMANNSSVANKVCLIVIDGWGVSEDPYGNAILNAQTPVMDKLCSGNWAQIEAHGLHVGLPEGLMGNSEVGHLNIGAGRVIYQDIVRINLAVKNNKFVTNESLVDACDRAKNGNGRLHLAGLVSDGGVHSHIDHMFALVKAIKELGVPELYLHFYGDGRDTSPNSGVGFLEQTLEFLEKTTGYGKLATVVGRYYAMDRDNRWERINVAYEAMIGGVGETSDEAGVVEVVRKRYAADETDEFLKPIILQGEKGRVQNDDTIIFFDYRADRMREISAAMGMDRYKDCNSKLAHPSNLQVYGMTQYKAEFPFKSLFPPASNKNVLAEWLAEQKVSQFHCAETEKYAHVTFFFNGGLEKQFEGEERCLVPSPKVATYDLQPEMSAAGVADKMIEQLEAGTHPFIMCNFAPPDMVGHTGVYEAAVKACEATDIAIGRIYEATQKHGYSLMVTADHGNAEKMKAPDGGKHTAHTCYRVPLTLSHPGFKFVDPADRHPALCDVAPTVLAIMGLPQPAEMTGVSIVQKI

T3: E. coli cofactor-dependent phosphoglycerate mutase (dPGM) (Escherichia coli), P62707
T3 chain: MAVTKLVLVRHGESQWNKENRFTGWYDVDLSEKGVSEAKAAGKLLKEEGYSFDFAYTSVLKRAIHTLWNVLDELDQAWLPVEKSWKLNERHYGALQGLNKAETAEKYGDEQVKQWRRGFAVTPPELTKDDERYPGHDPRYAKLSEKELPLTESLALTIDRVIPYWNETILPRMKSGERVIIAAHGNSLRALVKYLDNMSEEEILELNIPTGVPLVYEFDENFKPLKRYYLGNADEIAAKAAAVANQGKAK

T4: O. volvulus cofactor-independent phosphoglycerate mutase (iPGM) (Onchocerca volvulus), I6LDA6
T4 chain: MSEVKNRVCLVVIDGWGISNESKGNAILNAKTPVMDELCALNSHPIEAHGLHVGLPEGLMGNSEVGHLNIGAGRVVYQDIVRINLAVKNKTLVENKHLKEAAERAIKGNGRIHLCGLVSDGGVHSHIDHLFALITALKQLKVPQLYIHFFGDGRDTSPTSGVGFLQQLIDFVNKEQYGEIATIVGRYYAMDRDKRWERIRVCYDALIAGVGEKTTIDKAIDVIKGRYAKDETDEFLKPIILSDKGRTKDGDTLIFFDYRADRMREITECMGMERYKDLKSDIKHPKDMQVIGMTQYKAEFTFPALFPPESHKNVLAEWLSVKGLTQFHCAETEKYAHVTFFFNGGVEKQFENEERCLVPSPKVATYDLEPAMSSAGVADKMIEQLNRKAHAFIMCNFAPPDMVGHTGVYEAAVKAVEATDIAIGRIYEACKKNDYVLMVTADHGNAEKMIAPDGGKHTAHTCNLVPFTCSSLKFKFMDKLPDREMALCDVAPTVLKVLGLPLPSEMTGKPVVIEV

B1: Ce-1 (ipglycermide A) (peptide)
peptide: YDYPGDHCYLYGTCG
modifications: not checked
B2: Ce-2 (ipglycermide B) (peptide)
peptide: YDYPGDYCYLYGTCG
modifications: not checked
B3: Ce-2d (peptide)
peptide: YDYPGDYCYLY
modifications: not checked

Key:
B. malayi iPGM = B. malayi iPGM (Brugia malayi, UniProt Q4VWF8); experiment: biochemical
O. volvulus iPGM = O. volvulus iPGM (Onchocerca volvulus, UniProt I6LDA6); experiment: biochemical
D. immitis iPGM = format: biochemical, Dirofilaria immitis
E. coli iPGM = E. coli iPGM (Escherichia coli, UniProt P37689); experiment: biochemical
Sequence of E. coli iPGM (P37689 whole entry, looked up): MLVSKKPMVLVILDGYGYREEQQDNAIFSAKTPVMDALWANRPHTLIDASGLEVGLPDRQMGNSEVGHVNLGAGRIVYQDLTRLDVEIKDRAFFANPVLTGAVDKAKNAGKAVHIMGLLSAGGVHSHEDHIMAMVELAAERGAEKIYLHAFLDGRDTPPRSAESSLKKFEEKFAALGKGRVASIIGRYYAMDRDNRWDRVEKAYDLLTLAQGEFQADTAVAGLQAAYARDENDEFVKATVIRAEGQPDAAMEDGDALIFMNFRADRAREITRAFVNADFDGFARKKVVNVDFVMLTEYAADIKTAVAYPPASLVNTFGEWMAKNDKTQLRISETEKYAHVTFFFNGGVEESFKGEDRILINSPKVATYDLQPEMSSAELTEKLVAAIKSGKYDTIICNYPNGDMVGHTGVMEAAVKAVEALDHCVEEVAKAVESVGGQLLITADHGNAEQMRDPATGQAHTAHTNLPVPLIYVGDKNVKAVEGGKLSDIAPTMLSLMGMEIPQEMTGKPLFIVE

[1] = test system: iPGM orthologs and dPGM isozymes; format: biochemical
[2] = target: T1, B. malayi cofactor-independent …; experiment: cell-based or functional assay
[3] = target: T2, C. elegans cofactor-independent …; experiment: cell-based or functional assay
[4] = target: T3, E. coli cofactor-dependent …; experiment: cell-based or functional assay
[5] = target: T5, E. coli cofactor-independent phosphoglycerate mutase (iPGM) (Escherichia coli), P37689; experiment: cell-based or functional assay
[6] = target: H. sapiens cofactor-dependent phosphoglycerate mutase (dPGM) (Homo sapiens), P18669; experiment: cell-based or functional assay
[7] = target: T4, O. volvulus cofactor-independent …; experiment: cell-based or functional assay
iPGM orthologues = experiment: cell-based or functional assay
[8] = target: T4, O. volvulus cofactor-independent …; experiment: cell-based or functional assay
[9] = target: T1, B. malayi cofactor-independent …; experiment: cell-based or functional assay
[10] = target: T2, C. elegans cofactor-independent …; experiment: cell-based or functional assay
[11] = target: T5, E. coli cofactor-independent …; experiment: cell-based or functional assay; remark: listed apart in the source
[12] = target: T4, O. volvulus cofactor-independent …; experiment: cell-based or functional assay
[13] = target: T2, C. elegans cofactor-independent …; experiment: quadratic (stoichiometric binding) model fitted to concentration response curves of the coupled bioluminescent enzyme assay at several C. elegans iPGM concentrations (FIG. 10B)
[14] = read-out: B. malayi iPGM Max Inhibition
[15] = read-out: O. volvulus iPGM Max Inhibition
[16] = read-out: E. coli iPGM Max Inhibition

Row | Molecule | D. immitis iPGM Max Inhibition (D. immitis iPGM) | inhibitory activity on the iPGM orthologs [1] | B. malayi iPGM Max Inhibition (B. malayi iPGM) | O. volvulus iPGM Max Inhibition (O. volvulus iPGM) | E. coli iPGM Max Inhibition (E. coli iPGM) | Max Inhibition [2] | pIC50 [2] | Max Inhibition [3] | pIC50 [3] | Max Inhibition [4] | Max Inhibition [5] | pIC50 [5] | Max Inhibition [6] | Max Inhibition [7] | pIC50 [7] | inhibitory activity (endpoint profiling assays) (iPGM orthologues) [nM] | Max Inhibition (* iPGM 500 pM) [3] | pEC50 (GEMBE) [3] [pEC50] | pIC50 (* iPGM 500 pM) [3] | Max Inhibition (* series) [4] | further results
1 | CC(C)C[C@H](NC(=O)[C@H](Cc1ccc(O)cc1)NC(=O)[C@@H]1CSCC(=O)N[C@H](Cc2ccc(O)cc2)C(=O)N[C@@H](CC(=O)O)C(=O)N[C@@H](Cc2ccc(O)cc2)C(=O)N2CCC[C@H]2C(=O)NCC(=O)N[C@@H](CC(=O)O)C(=O)N[C@@H](Cc2ccc(O)cc2)C(=O)N1)C(=O)N[C@@H](Cc1ccc(O)cc1)C(=O)NCC(=O)N[C@H](C(=O)N[C@@H](CS)C(N)=O)[C@@H](C)O [Ce-2a] | −100.1 ± 5.6 | subnanomolar potency |  |  |  |  |  |  |  |  |  |  |  |  |  |  |  |  |  |  | B. malayi iPGM PIC50, M (B. malayi iPGM): 8.07 ± 0.10 M and 9.49 ± 0.08 M; Emax (B. malayi iPGM; [14]): 99.2 ± 5.3%; inhibition at 0.0005 µM (B. malayi iPGM; [14]): 100.3 ± 0.8%; O. volvulus iPGM PIC50, M (O. volvulus iPGM): 7.31 ± 0.09 M; pIC50 O. volvulus iPGM (O. volvulus iPGM): 9.68; Emax (O. volvulus iPGM; [15]): 97.7 ± 4.4%; inhibition at 0.0005 µM (O. volvulus iPGM; [15]): 97.5 ± 2.7%; D. immitis iPGM PIC50, M (D. immitis iPGM): 9.68 ± 0.09 M; D. immitis iPGM Max Inhibition (D. immitis iPGM; 0.0005 µM): −92.5 ± 4.0; E. coli iPGM PIC50, M (E. coli iPGM): 8.51 ± 0.14 M and 9.58 ± 0.02 M; Emax (E. coli iPGM; [16]): 99.2 ± 8.5%; inhibition at 0.0005 µM (E. coli iPGM; [16]): 84.1 ± 9.5%
2 | ^Ac-DYDYPGDYSYLY [Ce-L2d] | −5.2 ± 4.9 | completely inactive | −7.3 ± 2.0 | −15.7 ± 8.3 | −21.1 ± 2.4 |  |  |  |  |  |  |  |  |  |  |  |  |  |  |  | 
3 | ^Ac-DYLYGTCG [Ce-2tail] | −1.9 ± 10.3 |  | −10.2 ± 3.3 | −11.6 ± 5.3 | −21.1 ± 2.7 |  |  |  |  |  |  |  |  |  |  |  |  |  |  |  | activity on all PGMs [1]: inactive
4 | B1 |  |  |  |  |  | -94 | 7.92 pIC50 (M) | -95.8 | 8.4 pIC50 (M) | 5 | -96.5 | 8.38 pIC50 (M) | 4 | -95.4 | 7.61 pIC50 (M) | 2 to 20 |  |  |  |  | pIC50 [8]: 7.62 pIC50
5 | B2 |  |  |  |  |  | -98.8 | 8.27 pIC50 (M) | -100 | 8.65 pIC50 (M) | -5.9 | -102 | 8.78 pIC50 (M) | -0.3 | -98.2 | 7.72 pIC50 (M) | 2 to 20 | -101 | 8.36 | 9.6 pIC50 (M) | 2.7 | pEC50 (GEMBE) [2]: 8.37 pEC50; fold enhancement in affinity against linear Ce-L2 (from IC50s) [5]: 2000 fold; pEC50 (GEMBE) [5]: 8.49 pEC50; Max Inhibition (* series) [6]: 1.9; fold enhancement in affinity against linear Ce-L2 (from IC50s) [7]: 10000 fold; IC50 [9]: 17 nM and 16.8 nM; pIC50 [9]: 7.78 pIC50; IC50 [10]: 2.3 nM and 2.34 nM; pIC50 [10]: 8.63 pIC50; IC50 [11]: 0.23 nM; pIC50 [11]: 9.64 pIC50; IC50 [12]: 23 nM and 23.5 nM; pIC50 [12]: 7.63 pIC50; Kd [13]: 0.073 nM
6 | B3 |  |  |  |  |  |  |  | -103 | 8.56 pIC50 (M) | -6.3 | -102 | 8.71 pIC50 (M) | -1.2 |  |  |  | -100 | 8.49 | 9.03 pIC50 (M) | 2.3 | pEC50 (GEMBE) [5]: 8.5 pEC50; Max Inhibition (* series) [6]: 7.9; IC50 [10]: 3.9 nM and 3.88 nM; pIC50 [10]: 8.41 pIC50; IC50 [11]: 0.77 nM; pIC50 [11]: 9.12 pIC50
